Measured values taken from the RNAGym collection of RNA variant scans (doi:10.1073/pnas.2313332121).

B1: TPR t1 (parent)
chain: GACCAAUCUGCCCUCAGAGCUCGAGAACAUCUUCGGAUGCAGAGGAGGCAGGCUUCGGUGGCGCGAUAGCGCCAACGUCCUCAACCUCCAAUGCAUCCCACCACAUGAUGAUGCCUGAAGAGCCUUGGUUUUUUG

Variants of: B1
Test: polymerase ribozyme fitness, log enrichment relative to wild type (log ratio); higher = more active; in vitro selection for triplet polymerase activity
Procedure, shortened: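 Input and output libraries were sequenced on Illumina after a single in vitro selection round, run in triplicate on PCR-built, transcribed mutant libraries of each subunit of a heterodimeric triplet polymerase ribozyme. Selection annealed libraries to a biotinylated primer, the partner subunit and triplets, incubated them frozen at −7 °C, then gel-excised extended constructs for streptavidin-bead capture and RT-PCR. Genotypes with ≥10 input reads and ≥1 read per output were kept. Fitness is the logarithm, taken in base 2, of genotype enrichment divided by wild-type enrichment, using inverse-variance-weighted replicate averages.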

| Variant | polymerase ribozyme fitness (log ratio) |
| --- | --- |
| GACCAAUCUGCCCUCAGAGCUCGAGAACAUCUUCGGAUGCAGAGGUGGCAGGCUUCGGUGGCGCGAUAGCGCCAACGUCCUCAACCUCCAAUGCAUCCCACCACAGGAUGAUGCCUGAAGAGCCUUGGUUUUUUG [A46U U106G] | -2.72 |
| GACCAAUCUGCCCUCAGAGCUCGAGAACAUCUUCGGAUGCAGAUGAGGCAGGCUUCGGUGGCGCGAUAGCGUCAACGUCCUCAACCUCCAAUGCAUCCCACCACAUGAUGAUGCCUGAAGUGCCUUGGUUUUUUG [G44U C72U A121U] | 0.777 |
| GACUAAUCUGCCCUCAGAGCUCGAGAACAUCUUCGGAUGCAGAGGAGGCAGGCUUCGGUGGCGCGAUAGAGCCAACGUCCUCAACCUCCAAUGCAUCCCACCACAUGAUGAUGCCUGAAGAGCCUUGGUUUUUUG [C4U C70A] | -2.42 |
| GACCAAUCUGCCCUCAGAGCUCGAGAACAUCUUCGGAUGCAGAGGAGGCAGGCUUCGGUGGCGCGAUAGCGCCAACGUCCUCAACCUCCAAUGCACCCCACUACAUGAUAAUGCCUGAAGAUCCUUGGUUUUUUG [U96C C102U G110A G122U] | -6.13 |
| GACCAAUCUGCCAUCAGAGCUCGAGAACAUCUUCGGACGCAGAGGAGGGAGGCUUCGGUGUCGCGAUAGCGCCAACGUCCUCAACCUCCAAUGCAUCCCACCACAGGAUGAUGCGUGAAGAGCCUUGGUUUUUUC [C13A U38C C49G G61U U106G C115G G135C] | -6 |
| GACCAAUCUGCCCUCAGAGCUCGAGAAUAUCUUCGGAUGCAGAGGAGGCAGGCUUCGGUGGCGCGAUAGCGUCAACGUCCUUAACCUCCAAUGCAUCCCACCACAUGAUGAUGCCUGAAGAGCCUUGGUUUUUUG [C28U C72U C82U] | -1.52 |
| GACCAAUCUACCUUCAGAGCUCGAGAUCAUCUUCGGAUGCAGAGGAGGCAGGCUUCGGUGGCGCGAUAGCGCCAACGUCCUCAACCUCCAAUGCAUCCCACCACAUGAUGAUGCCUGAAGAGCCUUGGUUUUUUG [G10A C13U A27U] | -2.05 |
| GACCAAUCUGCCCUCAGAGCUCGAGAACAUCUUCGGAUGCAGAGGAAGCAGGCUUCGGUGGCGCGAUAGCGUCAACGACCUCAACCUACAAUGCAUCCCACCACAUGAUGAUGCCUGAUGAGCCUUGGUUUCUUG [G47A C72U U78A C88A A119U U132C] | -1.87 |
| GACCAAUCUGCCCUCAGAGCUCGAGAACAUCUUCGGAUGCAGAGGAGGCAGGCUUCGGUGACGCGAUAGCGCCAACGUCCACAACCUCCAAUGCAUCCCACCACAUGAUGAUGCCUGAAGAGCCUUGGUUUUUUG [G61A U81A] | -0.273 |
| GACCAAUCUGCCCUCAGAGCUCGAGAACAUCUUCGGAUGCAGAGGAGGCAGGCUUCGGUGGCGCGAUAGCGCCAACGUCCUCAACCCACAAUGCAUCCCACCACAGGAUGAUGCCUGAAGAGCCUUGGUUUUUUG [U87C C88A U106G] | -2.76 |
| GACCAAUCUGCCCUCAGAGCUCGAGAACAUCUUCGCAUGCAGAGGAGGCAGGCUUCGGUGGCGUGAUAGCGCCAACGUCCUCAACCUCCAAUGCAUCCCACCACAUGAUGAUGCCUGAAGAGCCUUGGUUUUUUG [G36C C64U] | -1.65 |
| GACCGAUCUGCCCUCAGAGCUAGAGAACAUCUUCGGAUGCAGAGGAGGCAGGCUUCGGUGGCGCGAUAGCGCCAACGUCCUCAACCUCCAAUGCAUCCCACCACAUGAUGAUGCCUGAGGAGCCUUGGUUUUUUG [A5G C22A A119G] | -4.13 |
| GACCAAUCUGCCCUCAGAGCUCGAGAAGAUCUUCGGAUGCAGAGGAGACAGGCUUCGGUGGCGCGAUAGCGUCAACGUCCUCAACCUCCAAUGCAUCCCACCACAUGAUGAUGCCUGAAGAGCCUUGGUUUUUUG [C28G G48A C72U] | -3.41 |
| GACCAAUCUGCCCUCAGAGCUCGAGAACAUCUUCGGAUGCAGAGGAGGCAGGCUUCGGUGGCGUGAUAGCGCCAACGUCCUCAACCUCCAAUGCAUCCCACCACAGGAUGAUGCCUGAACAGCCUUGGUUUUUUG [C64U U106G G120C] | -0.96 |
| GACCAAUCUGCCCUAAGAGCUCGAGAACAUCUUCGGAUGCAGAGGAGGCAGGCUUCGGUGGCGCGAUAGCGCCAACGUCCUCAACCUCCAAUGCAUCCCACCACAUGAUGAUGCCUGAAGAGCCUUGGUUUUCUG [C15A U133C] | -1.06 |
| GACCAAUCUGCCCUCAGAGCUCGAGAACAUCUUCGGAUGCAGAGGAGGCAGGCUUCGGUGGCGCGAUAGCGCCAACGUCCUAAACCUCCAAUGUAUCCCACCACAUGAUGAUGCCUGAAGAGCCUUGGUUUUUUG [C82A C94U] | -0.596 |
| GACCAAUCUGCCCUCAGAGCUCGAGAACAUCUUCGGAUGCAGAGGAGUCAGGCUUCGGUGGCGCGAUAGCGCCAACGUCCUCAACCUCCAAUGCAUCCCACCACCUGAUGAUGCCUGAAGAGCCUUGGUUUUUUG [G48U A105C] | -2.86 |
| GACCAAGCUGCCCUCAGAGCUCGAGAACAUCUUCGGAUGCAGAGGAGGCAGGCUUCGGUGGCGCGAUAGCGCAAACGUCAUCAACCUCCAAUGCAUCCCACCACAUGAUGAUGCCUGAAGAGCCUUGCUUUUUUG [U7G C73A C80A G128C] | -5.2 |
| GACCAAUCUGCCCUCAGAGCUCGAGAACAUCUUCGGAUGCAGAGGAGGCAGGCUUAGGUGGCGCGAUAGCGCCAACGUCCUCAACGUCCAAUGCAUCCCACAACAUGAUGAUGCCUGAAGAGCCUUGGUUUUUUG [C56A C86G C102A] | -3.16 |
| GACCAAUCUGCCCUCAGAGCUUGAGAACAUCUUCGGAUGCAGAGGAGGCAGGCUUCGGUGGCGCGAUAACGCCAACGUCCUCAACCUCCAAUGCAUCCCACCAGAUGAUGCUGCCUGAAGAGCCUUGGUUUUUUG [C22U G69A C104G A111C] | -7.35 |
| GACCAAUCGGCCCUCAGAGCUCGAGAACUUCUUCGGAUCCAGAGGAGGCAGGCUUCGGUGGCGCGAUAGCGCCAACGUCCUCAACCUCCAAUGCAUCCCACCACAUGAUGAUGCCUGAAGAGCCUUGGUUUUUUG [U9G A29U G39C] | -3.86 |
